Measured values taken from PMC2637432.

Molecular target: human cytomegalovirus (HCMV)-encoded chemokine receptor US28, HA-tagged (human cytomegalovirus (HCMV)) (UniProt P69332)
Chain of UniProt P69332 (P69332 whole entry): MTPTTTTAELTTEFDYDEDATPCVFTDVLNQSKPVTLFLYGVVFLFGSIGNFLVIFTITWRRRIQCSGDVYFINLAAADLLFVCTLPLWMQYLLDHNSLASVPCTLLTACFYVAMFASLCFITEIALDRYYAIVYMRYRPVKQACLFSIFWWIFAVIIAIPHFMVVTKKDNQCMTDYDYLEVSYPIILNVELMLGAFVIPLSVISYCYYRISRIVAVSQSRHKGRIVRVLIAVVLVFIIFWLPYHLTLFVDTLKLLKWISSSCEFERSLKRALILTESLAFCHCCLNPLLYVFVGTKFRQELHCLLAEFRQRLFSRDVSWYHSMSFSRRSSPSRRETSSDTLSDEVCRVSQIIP

## recombinant human Fractalkine (from UniProt P78423 25-341) (ligand)
  lowest Fractalkine concentration that blocked migration of US28-expressing SMC induced by 40 ng/ml RANTES (competition migration assay): 10 ng/mL
